Laboratory results reported in patent publication US20070274981A1.

Tests used:
Recombinant FGFR-1(IIIc) [1] = biological target: Recombinant FGFR-1(IIIc) (UniProt P11362); experiment: kinetic analysis (BiaCore)
Recombinant FGFR-1(IIIc) [2] = biological target: Recombinant FGFR-1(IIIc) (UniProt P11362); experiment: ELISA blocking assay: FGFR-1(IIIc) binding to FGF-1
Recombinant FGFR-1(IIIc) [3] = biological target: Recombinant FGFR-1(IIIc) (UniProt P11362); experiment: ELISA blocking assay: FGFR-1(IIIc) binding to FGF-2
Recombinant FGFR-1(IIIc) [4] = biological target: Recombinant FGFR-1(IIIc) (UniProt P11362); experiment: BiaCore 3000 biosensor, binding kinetics
Recombinant FGFR-1(IIIc) [5] = biological target: Recombinant FGFR-1(IIIc) (UniProt P11362); experiment: ELISA blocking assay: FGFR-1(IIIc) binding to immobilised FGF-1
Recombinant FGFR-1(IIIc) [6] = biological target: Recombinant FGFR-1(IIIc) (UniProt P11362); experiment: ELISA blocking assay: FGFR-1(IIIc) binding to immobilised FGF-2
[7] = biological target: FGFR-1(IIIc) on transfected L6 cells (UniProt P11362); experiment: cell-based blocking assay: 125I-FGF-2 (15 ng/ml) binding to FGFR-1(IIIc)-expressing L6 cells

B1: FR1-A1 (antibody, V domains shown)
VH: QVQLVQSGAEVKKPGSSVKVSCKASGQTFTGYYMHWVRQAPGQGLEWMGRIIPILGIANYAQKFQGRVTITADKSTSTAYMELSSLRSEDTAVYYCARGGDLGGMDVWGQG
VL: EIVLTQSPLSLPVTPGEPASISCRSSQSLRHSNGYNYLDWYLQKPGQSPQLLIYLASNRASGVPDRFSGSGSGTDFTLKISRVEAEDVGVYYCMQALQIPPTFGPGTKVDIKR
Kd (Recombinant FGFR-1(IIIc) [1]): 0.7 nM
IC50 (Recombinant FGFR-1(IIIc) [2]): 5 nM
IC50 (Recombinant FGFR-1(IIIc) [3]): 10 nM

B2: FR1-H7 (antibody, V domains shown)
VH: EVQLVQSGAEVKKPGASVKVSCKVSGYTFTDYYMHWVQQAPGKGLEWMGLVDPEDGETIYAEKFQGRVTITADTSTDTAYMELSSLRSEDTAVYYCARDDYMDVWGKGTLVTVSS
VL: ETTLTQSPDTLSLSPGEGATLSCRASQSVSGSALAWYQQKPGQAPRLLIYDASSRATGVPDRFSGSGSGADFSLTISRLEPEDFAVYSCQQYGSSPLTFGPGTKVDVKR
Kd (Recombinant FGFR-1(IIIc) [1]): 0.05 nM
Kd (Recombinant FGFR-1(IIIc) [4]): 0.04 nM
IC50 (Recombinant FGFR-1(IIIc) [5]): 5 nM
IC50 (Recombinant FGFR-1(IIIc) [6]): 2 to 5 nM
IC50 [7]: < 5 nM
